Data from patent US6602687B1, “DNA encoding human ciliary neurotrophic factor and method for producing the protein encoded thereby” (Regeneron Pharmaceuticals, Inc., priority 1989, dated 2003).

Key:
[1] = system: E8 chick ciliary ganglion neurons; assay: Survival of dissociated E8 chick ciliary ganglion neurons; type: cell-based; details: saturating levels of recombinant human CNTF; 48 hr
How it was run: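 In one protocol, dissociated E8 chick ciliary ganglion cells (2,000 per well, HEBM with 20% horse serum) were held 24 h at 37 °C, fixed, and surviving neurons counted by phase contrast. In another, trypsinized, pre-plating-enriched neurons on polyornithine-laminin (8,000-10,000 per dish, F14 with 5% horse serum) were scored as percentage process-bearing at 48 h, in triplicate.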

[2] = system: E18-19 rat hippocampal neurons; assay: High affinity GABA uptake in hippocampal cultures; type: cell-based
Method: Hippocampi were dissected from E18-19 rat embryos of Sprague-Dawley rats, and collected in F10 medium. The tissues were minced, rinsed twice with F10 medium (Gibco) and trypsinized with 0.25% trypsin (Gibco) for 20 minutes at 37° C. Trypsin was inactivated by the addition of a serum-containing medium composed of minimal essential medium (MEM) supplemented with fetal calf serum (FCS, 10%), glutamine (2 mM), penicillin (25 U/ml) and streptomycin (25 ug/ml). Dissociated cells obtained by gentle trituration were collected and centrifuged at low speed (500 rpm) for 30 seconds. The centrifugation was repeated twice, and the cell pellets were then resuspended in serum-containing medium. The cells were then plated onto 6 mm wells or 35 mm dishes that were coated with polyornithine (10 ug/ml) and laminin (10 ug/ml). In most of the experiments, the cells were plated at a low density of approximately 71,000 cells/cm^2. Five to six hours following the plating of cells, medium was changed to a serum-free medium containing 1% N3 and penicillin-streptomycin (25 units/ml and 25 ug/ml, respectively), at which time CNTF was added. Medium was changed every three to four days, with re-addition of the factor.
To obtain neuron-enriched cultures, cytosine arabinoside (Ara-C, 0.3 uM) was added for a period of 24 hours. Under such condition, the hippocampal cultures contain approximately 5-10% glial cells, as assessed by GFAP immunohistochemistry.
Uptake of GABA into non-neuronal cells was inhibited by the additional of 2 mM B-alanine, whereas uptake specific for neurons is verified by inhibition with nipecotic acid at 1 mM.
The CNTF used in all assays was recombinant rat CNTF, expressed and purified as described in Example Section 12 supra.

B1: CNTF: ciliary neurotrophic factor; recombinant rat CNTF in Sections 10, 15, 17, purified rat sciatic nerve CNTF in Section 11; see endpoint conditions (protein, UniProt P20294 1-200, looked up)
Ciliary neurotrophic factor: MAFAEQTPLTLHRRDLCSRSIWLARKIRSDLTALMESYVKHQGLNKNINLDSVDGVPVASTDRWSEMTEAERLQENLQAYRTFQGMLTKLLEDQRVHFTPTEGDFHQAIHTLMLQVSAFAYQLEELMVLLEQKIPENEADGMPATVGDGGLFEKKLWGLKVLQELSQWTVRSIHDLRVISSHQMGISALESHYGAKDKQM
[1]
  neurons surviving and elaborating long neurites: 60-70%
[2]; 71,000 cells/cm2, CNTF 10 ng/ml, 8 days
  increase in Gaba uptake at low plating density: approximately 2.6 fold
[2]; 143,000 cells/cm2, CNTF 10 ng/ml
  increase in Gaba uptake at higher plating density: failed to induce a significant increase
[2]; AraC-treated neuron-enriched cultures
  concentration of CNTF required for a maximal response in GABA uptake: 0.03 ng/mL
[2]; CNTF 10 ng/ml
  increase in Gaba uptake, CNTF added on the third day and cells treated for 8 days: failed to induce increase in Gaba uptake
[2]; CNTF 10 ng/ml, assayed 7 days later
  CNTF-induced increase in GABA uptake, addition delayed by one day: lowered
[2]; CNTF 10 ng/ml, uptake on the eighth day in culture
  CNTF-induced increase in GABA uptake, addition on the third day after plating: no longer produced an increase in GABA uptake
[2]; neuron-enriched cultures, cytosine arabinoside 0.3 uM for 24 h, 8 days
  increase in Gaba uptake versus untreated controls in AraC-treated cultures: 2.4 fold
[2]; neuron-glia mixed cultures (−AraC)
  concentration of CNTF required for a maximal response in GABA uptake: 0.1 ng/mL
[2]; recombinant rat CNTF 0.1 ng/ml for 8 days
  maximal increase in specific neuronal GABA uptake (dose response): approximately 3 fold
[2]; recombinant rat CNTF 10 ng/ml, 8 days after addition, 71,000 cells/cm2
  maximal increase in specific neuronal GABA uptake versus untreated controls: approximately 4 fold
[2]; recombinant rat CNTF, 8 days
  concentration at which specific neuronal GABA uptake was increased: 0.01 ng/mL
